Data published in patent publication US20130011427A1 (priority 2009, published 2013).

Experiments:
Test in all cases: cell-based or functional assay
[1] = molecular target: HLA-A2.1 (HHD monochain) (human; murine)
[2] = molecular target: HLA-DR3 (HLA-DRA*0101 / HLA-DRB1*0301) (human)
[3] = molecular target: HLA-DR2 (chimeric HLA-DRA1*0101/DRB1*1501 with I-E domains) (human; murine) (UniProt Q8BHN5)
[4] = molecular target: HLA-DR4 (HLA-DRA*0101 / HLA-DRB1*0401) (human)
[5] = molecular target: HLA-B7 (chimeric HLA-B*0702 / H-2K^d heavy chain) (human; murine) (UniProt P01902)
UniProt P01902, sequence (P01902 whole entry, change not shown): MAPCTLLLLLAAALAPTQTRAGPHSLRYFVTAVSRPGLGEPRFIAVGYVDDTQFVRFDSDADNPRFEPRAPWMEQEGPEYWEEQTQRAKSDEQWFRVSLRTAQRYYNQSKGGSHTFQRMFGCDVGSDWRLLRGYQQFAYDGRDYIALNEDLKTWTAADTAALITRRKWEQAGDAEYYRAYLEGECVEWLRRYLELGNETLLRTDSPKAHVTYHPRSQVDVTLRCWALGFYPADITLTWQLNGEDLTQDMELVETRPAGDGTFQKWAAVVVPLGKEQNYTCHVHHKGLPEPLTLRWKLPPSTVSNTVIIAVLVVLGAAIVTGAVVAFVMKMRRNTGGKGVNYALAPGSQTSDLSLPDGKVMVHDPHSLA

UniProt Q8BHN5, sequence (Q8BHN5 whole entry, stated change not applied): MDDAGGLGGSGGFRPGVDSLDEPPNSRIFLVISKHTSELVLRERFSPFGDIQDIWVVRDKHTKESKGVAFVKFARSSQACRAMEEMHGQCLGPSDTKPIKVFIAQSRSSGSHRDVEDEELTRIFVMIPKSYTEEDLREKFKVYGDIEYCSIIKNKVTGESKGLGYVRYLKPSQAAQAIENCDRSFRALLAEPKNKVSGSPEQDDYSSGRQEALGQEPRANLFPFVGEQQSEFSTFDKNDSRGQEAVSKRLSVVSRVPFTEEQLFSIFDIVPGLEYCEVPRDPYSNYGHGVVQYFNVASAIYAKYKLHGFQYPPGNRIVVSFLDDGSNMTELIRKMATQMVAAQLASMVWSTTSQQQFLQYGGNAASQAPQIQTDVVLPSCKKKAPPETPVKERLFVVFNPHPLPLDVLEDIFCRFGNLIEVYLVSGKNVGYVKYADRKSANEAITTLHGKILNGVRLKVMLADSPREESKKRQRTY

| IFN-γ ELISpot (SFC/10^6) [2] | IFN-γ ELISpot (SFC/10^6) [4] | Substance | further results |
| --- | --- | --- | --- |
| 572 SFC/10^6 | – | WNV NS1 1-19 peptide | – |
| – | 63 SFC/10^6 | WNV NS1 10-27 peptide | – |
| 52 SFC/10^6 | – | WNV NS1 18-35 peptide | – |
| – | 61 SFC/10^6 | WNV NS1 205-221 peptide | – |
| – | 54 SFC/10^6 | WNV NS1 270-287 peptide | – |
| 557 SFC/10^6 | 109 SFC/10^6 | WNV NS1 305-322 peptide | – |
| – | 78 SFC/10^6 | WNV NS1 327-343 peptide | – |
| – | 60 SFC/10^6 | WNV NS2a 65-81 peptide | – |
| 231 SFC/10^6 | – | WNV NS2a 168-183 peptide | IFN-γ ELISpot (SFC/10^6) [3]: 556 SFC/10^6 |
| – | 104 SFC/10^6 | WNV NS2b 1-18 peptide | – |
| – | – | WNV NS3 1-15 peptide | IFN-γ ELISpot (SFC/10^6) [5]: 45 SFC/10^6 |
| – | 43 SFC/10^6 | WNV NS3 6-23 peptide | – |
| 368 SFC/10^6 | – | WNV NS3 37-54 peptide | IFN-γ ELISpot (SFC/10^6) [3]: 149 SFC/10^6 |
| 63 SFC/10^6 | – | WNV NS3 45-59 peptide | – |
| 121 SFC/10^6 | – | WNV NS3 480-496 peptide | – |
| 216 SFC/10^6 | – | WNV NS3 492-509 peptide | – |

| IFN-γ ELISpot (SFC/10^6) [2] | IFN-γ ELISpot (SFC/10^6) [4] | Substance | further results |
| --- | --- | --- | --- |
| 145 SFC/10^6 | – | WNV NS3 500-517 peptide | IFN-γ ELISpot (SFC/10^6) [3]: 51 SFC/10^6 |
| – | 52 SFC/10^6 | WNV NS3 581-597 peptide | – |
| 132 SFC/10^6 | – | WNV NS4a 1-17 peptide | – |
| – | 187 SFC/10^6 | WNV NS4a 15-31 peptide | IFN-γ ELISpot (SFC/10^6) [3]: 278 SFC/10^6 |
| 67 SFC/10^6 | – | WNV NS4b 38-55 peptide | IFN-γ ELISpot (SFC/10^6) [3]: 57 SFC/10^6 |
| 386 SFC/10^6 | 92 SFC/10^6 | WNV NS4b 63-80 peptide | – |
| – | 134 SFC/10^6 | WNV NS4b 101-118 peptide | – |
| – | 83 SFC/10^6 | WNV NS4b 187-204 peptide | – |
| 99 SFC/10^6 | 73 SFC/10^6 | WNV NS4b 201-218 peptide | – |
| – | – | WNV NS5 145-162 peptide | IFN-γ ELISpot (SFC/10^6) [5]: 50 SFC/10^6 |
| – | – | WNV NS5 153-168 peptide | IFN-γ ELISpot (SFC/10^6) [1]: 332 SFC/10^6; IFN-γ ELISpot (SFC/10^6) [3]: 250 SFC/10^6; IFN-γ ELISpot (SFC/10^6) [5]: 112 SFC/10^6 |
| – | 78 SFC/10^6 | WNV NS5 791-808 peptide | – |
| – | – | WNV NS5 828-843 peptide | IFN-γ ELISpot (SFC/10^6) [5]: 39 SFC/10^6 |
| – | 56 SFC/10^6 | WNV prM 121-138 peptide | IFN-γ ELISpot (SFC/10^6) [3]: 130 SFC/10^6 |
| 78 SFC/10^6 | 327 SFC/10^6 | WNV prM 136-153 peptide | IFN-γ ELISpot (SFC/10^6) [3]: 235 SFC/10^6 |

| Substance | IFN-γ ELISpot (SFC/10^6) [2] | IFN-γ ELISpot (SFC/10^6) [4] | further results |
| --- | --- | --- | --- |
| WNV E 486-501 peptide | 244 SFC/10^6 | – | IFN-γ ELISpot (SFC/10^6) [1]: 323 SFC/10^6; IFN-γ ELISpot (SFC/10^6) [3]: 214 SFC/10^6 |
| WNV NS3 228-243 peptide | – | 46 SFC/10^6 | – |
| WNV NS3 474-489 peptide | 83 SFC/10^6 | – | IFN-γ ELISpot (SFC/10^6) [1]: 92 SFC/10^6 |
| WNV NS3 487-501 peptide | 431 SFC/10^6 | – | IFN-γ ELISpot (SFC/10^6) [1]: 308 SFC/10^6 |
| WNV NS3 560-574 peptide | 225 SFC/10^6 | – | – |
| WNV NS5 115-132 peptide | 79 SFC/10^6 | – | – |
| WNV NS5 605-622 peptide | – | 240 SFC/10^6 | IFN-γ ELISpot (SFC/10^6) [3]: 556 SFC/10^6 |
| WNV NS5 704-721 peptide | – | 65 SFC/10^6 | – |
| WNV NS5 763-780 peptide | – | 91 SFC/10^6 | IFN-γ ELISpot (SFC/10^6) [5]: 36 SFC/10^6 |
| WNV NS5 771-788 peptide | – | 135 SFC/10^6 | – |
| WNV prM 152-167 peptide | 90 SFC/10^6 | 117 SFC/10^6 | IFN-γ ELISpot (SFC/10^6) [1]: 318 SFC/10^6; IFN-γ ELISpot (SFC/10^6) [3]: 269 SFC/10^6 |
